In paper PMC7156385, “Proper chromosome alignment depends on BRCA2 phosphorylation by PLK1” (Nature Communications, 2020):
[ ]: non-standard residue; d: D form. pT = C[C@@H](OP(=O)(O)O)[C@H](N)C(=O)O; pS = N[C@@H](COP(=O)(O)O)C(=O)O

What was measured:
[1] = target: purified 2xMBP-BRCA2_(1-250) T207A (human) (UniProt P51587)
[2] = target: endogenous BUBR1 (human (endogenous in DLD1)) (UniProt O60566); assay: co-IP; immunoprecipitation of endogenous BUBR1 with mouse anti-BUBR1 antibody from nocodazole-treated DLD1 BRCA2-/- stable clones expressing BRCA2 WT or variants; extraction buffer A, washes up to 500 mM NaCl; western blot for PP2A-C and PLK1
Sequence of endogenous BUBR1 (human (endogenous in DLD1)) (O60566 whole entry): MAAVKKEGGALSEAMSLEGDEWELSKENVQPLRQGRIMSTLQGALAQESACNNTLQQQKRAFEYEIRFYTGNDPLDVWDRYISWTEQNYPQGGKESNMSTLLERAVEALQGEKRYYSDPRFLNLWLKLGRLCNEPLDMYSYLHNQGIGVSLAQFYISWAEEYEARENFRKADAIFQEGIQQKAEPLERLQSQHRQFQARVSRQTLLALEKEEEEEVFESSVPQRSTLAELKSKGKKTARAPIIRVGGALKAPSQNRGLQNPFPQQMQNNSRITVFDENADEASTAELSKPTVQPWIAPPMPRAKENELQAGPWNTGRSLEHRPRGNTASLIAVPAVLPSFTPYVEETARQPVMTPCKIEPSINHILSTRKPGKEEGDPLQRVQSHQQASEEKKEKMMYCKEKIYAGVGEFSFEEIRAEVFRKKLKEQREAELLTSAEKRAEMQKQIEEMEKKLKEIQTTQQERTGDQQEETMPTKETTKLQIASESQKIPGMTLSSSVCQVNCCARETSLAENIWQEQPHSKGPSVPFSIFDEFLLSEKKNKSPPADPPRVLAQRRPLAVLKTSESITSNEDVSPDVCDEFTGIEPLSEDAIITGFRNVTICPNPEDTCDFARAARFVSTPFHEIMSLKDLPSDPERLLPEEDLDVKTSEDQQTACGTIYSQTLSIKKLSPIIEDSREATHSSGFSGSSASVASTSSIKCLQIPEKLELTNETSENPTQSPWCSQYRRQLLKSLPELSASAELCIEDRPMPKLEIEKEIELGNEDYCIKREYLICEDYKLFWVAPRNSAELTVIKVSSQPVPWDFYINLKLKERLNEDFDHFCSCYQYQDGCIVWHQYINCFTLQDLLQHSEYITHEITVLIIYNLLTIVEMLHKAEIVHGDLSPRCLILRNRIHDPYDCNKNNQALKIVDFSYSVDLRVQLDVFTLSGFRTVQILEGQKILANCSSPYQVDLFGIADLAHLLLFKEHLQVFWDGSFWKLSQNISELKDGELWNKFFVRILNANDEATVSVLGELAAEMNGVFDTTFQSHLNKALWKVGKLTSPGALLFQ

[3] = target: BRCA2_(190-284) phosphorylated by PLK1 (human) (UniProt P51587); assay: ITC; PLK1 PBD (326-603) and BRCA2 peptides; 50 mM Tris-HCl pH 8.0, 150 mM NaCl, 5 mM β-ME, 293 K, VP-ITC, one-site binding model
Sequence of BRCA2_(190-284) phosphorylated by PLK1 (human) (P51587 190-284): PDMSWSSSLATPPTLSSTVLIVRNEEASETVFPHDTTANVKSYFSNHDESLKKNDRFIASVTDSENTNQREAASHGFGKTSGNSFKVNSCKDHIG

[4] = target: T1, PLK1 Polo-box domain (amino acid 326 to amino acid 603) (UniProt P53350 326-603); assay: as above; conditions: both partners purified
T1 construct: PLK1, Polo-box domain, amino acids 326 to 603, amplified from Addgene pTK24; also called PLK1PBD; PLK1 PBD (326-603); source: E. coli Tuner pLacI pRare, purified (His-Trap, SUMO protease, Ni-NTA, Superdex)
T1 sequence (P53350 326-603): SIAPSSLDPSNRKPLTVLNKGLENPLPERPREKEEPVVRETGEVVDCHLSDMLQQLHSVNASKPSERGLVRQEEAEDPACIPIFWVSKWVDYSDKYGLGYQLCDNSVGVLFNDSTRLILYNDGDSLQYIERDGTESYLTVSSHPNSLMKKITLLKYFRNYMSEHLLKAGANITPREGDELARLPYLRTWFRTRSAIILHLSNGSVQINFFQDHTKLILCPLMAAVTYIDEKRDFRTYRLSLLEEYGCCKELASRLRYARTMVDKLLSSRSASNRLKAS

recombinant PLK1 = target: T2, recombinant PLK1 (UniProt P53350 1-603); assay: pull-down; in vitro kinase reaction (0.2 µg PLK1 or PLK1-KD, 0.5 µg 2xMBP-BRCA2_(1-250), kinase buffer with 250 µM ATP or without ATP, 30 min at 30 °C) followed by amylose beads for 1 h at 4 °C, washes with 0.5% NP-40 and 0.1% Triton X-100, elution with 10 mM maltose; western blot; conditions: both partners purified
T2 construct: Polo-like kinase 1 (PLK1), cDNA from Addgene pTK24 cloned into pFast-Bac HT; also called 6xHis-PLK1; PLK1-WT; source: Sf9, purified (Ni-NTA, Capto S) or bought: Abcam
T2 sequence (P53350 whole entry): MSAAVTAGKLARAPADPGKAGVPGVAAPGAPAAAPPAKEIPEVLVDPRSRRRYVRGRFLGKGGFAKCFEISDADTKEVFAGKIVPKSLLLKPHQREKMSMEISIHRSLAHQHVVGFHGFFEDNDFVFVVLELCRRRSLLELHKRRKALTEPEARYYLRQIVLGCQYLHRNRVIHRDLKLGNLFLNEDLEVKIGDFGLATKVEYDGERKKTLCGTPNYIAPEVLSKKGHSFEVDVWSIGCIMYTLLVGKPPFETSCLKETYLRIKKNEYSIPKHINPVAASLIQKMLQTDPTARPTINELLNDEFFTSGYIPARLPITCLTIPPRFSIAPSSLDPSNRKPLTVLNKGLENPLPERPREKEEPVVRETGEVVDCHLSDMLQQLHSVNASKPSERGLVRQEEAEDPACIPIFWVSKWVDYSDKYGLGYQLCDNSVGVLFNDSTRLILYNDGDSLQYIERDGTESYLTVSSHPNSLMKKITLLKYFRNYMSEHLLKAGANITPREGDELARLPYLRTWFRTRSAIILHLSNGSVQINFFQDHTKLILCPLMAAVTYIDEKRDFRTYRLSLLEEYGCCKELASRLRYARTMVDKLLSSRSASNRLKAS

Question: Which fold decrease in in vitro kinase assay: phosphorylation of 2xMBP-BRCA2 (1-250) by recombinant PLK1 (32P), T207A against WT [1] does the source give for “recombinant PLK1 (from UniProt P53350 1-603) (enzyme)” here?
Answer: 2 fold

Question: Which reduction of PP2A co-immunoprecipitated with BUBR1 in BRCA2-T207A cells against BRCA2 WT cells [2] does the source give for “PP2A (detected by its catalytic subunit, PP2AC) (from UniProt P67775 1-309) (cell line)” here?
Answer: 30%

Question: “PLK1 Polo-box domain (amino acid 326 to amino acid 603) (from UniProt P53350 326-603) (domain or fragment)” was tested. Which Kd [3] did it give?
Answer: 140 nM

B1: BRCA2 peptide containing pS197 (peptide)
chain: Ac-DMSWSS[pS]LAT-NH2
SMILES: CSCC[C@H](NC(=O)[C@H](CC(=O)O)NC(C)=O)C(=O)N[C@@H](CO)C(=O)N[C@@H](Cc1c[nH]c2ccccc12)C(=O)N[C@@H](CO)C(=O)N[C@@H](CO)C(=O)N[C@@H](COP(=O)(O)O)C(=O)N[C@@H](CC(C)C)C(=O)N[C@@H](C)C(=O)N[C@H](C(N)=O)[C@@H](C)O
Question: B1 was tested. Which Kd [4] did it give?
Answer: 17000 ± 2000 nM

B2: BRCA2 17 aa peptide containing pT207 (194WSSSLATPPTLSS{pT}VLI210) (peptide)
peptide: Ac-WSSSLATPPTLSS[pT]VLI-NH2
SMILES: CC[C@H](C)[C@H](NC(=O)[C@H](CC(C)C)NC(=O)[C@@H](NC(=O)[C@@H](NC(=O)[C@H](CO)NC(=O)[C@H](CO)NC(=O)[C@H](CC(C)C)NC(=O)[C@@H](NC(=O)[C@@H]1CCCN1C(=O)[C@@H]1CCCN1C(=O)[C@@H](NC(=O)[C@H](C)NC(=O)[C@H](CC(C)C)NC(=O)[C@H](CO)NC(=O)[C@H](CO)NC(=O)[C@H](CO)NC(=O)[C@H](Cc1c[nH]c2ccccc12)NC(C)=O)[C@@H](C)O)[C@@H](C)O)[C@@H](C)OP(=O)(O)O)C(C)C)C(N)=O
notes: BRCA2, human, residues 194-210, T207 phosphorylated; Used for ITC and for the crystal; also called pT207 peptide; T207 phosphorylated peptide; source: synthetic peptide
Question: With B2 as the molecule, how does the Kd [4] read?
Answer: 90 ± 10 nM

B3: purified 2xMBP-BRCA2_(1-250) WT (domain or fragment, human, UniProt P51587 1-250, looked up)
chain: MPIGSKERPTFFEIFKTRCNKADLGPISLNWFEELSSEAPPYNSEPAEESEHKNNNYEPNLFKTPQRKPSYNQLASTPIIFKEQGLTLPLYQSPVKELDKFKLDLGRNVPNSRHKSLRTVKTKMDQADDVSCPLLNSCLSESPVVLQCTHVTPQRDKSVVCGSLFHTPKFVKGRQTPKHISESLGAEVDPDMSWSSSLATPPTLSSTVLIVRNEEASETVFPHDTTANVKSYFSNHDESLKKNDRFIASV
notes: BRCA2, human, amino acids 1 to 250; also called PLK1-phosphorylated BRCA2_(1-250); source: HEK293T, transfected, purified (amylose resin, Bio-Rex 70)
Question: Does B3 bind (recombinant PLK1)?
Answer: binds
